Experimental data: a protein production outcome set (Wang et al. 2014)

Test: label from the status in PepcDB records

MAEERSLNGEATGQDDESFFDSDQQGDDGKSTELNQKIGDLESQNQELARDNDAINRKIESLTAEIEELRGAESKAKRKMGEMEREIDKSDEERKVLEAIASRASELETEVARLQHELITARTEGEEATAEAEKLRSEISQKGGGIEELEKEVAGLRTVKEENEKRMKELESKLGALEVKELDEKNKKFRAEEEMREKIDNKEKEVHDLKEKIKSLESDVAKGKTELQKWITEKMVVEDSLKDSEKKVVALESEIVELQKQLDDAEKMINGLKNVVEEPLNGIEFKSWSPNVTAVGSGGAVAAVAVAVAGAAVVCYIYHSRRV
protein production: failed

MKKRFSNKVLIIGYGSVSQCTLPLLLDKLDIPLENITLIDFEDKSKALKKYTNQGLTFVREKITPENLDQVLSQNMENEGMIIDLSWNIDANEIVKWCHDHDVLYVNTSVEVWDPAEKFLTQSLLEKSLYLRQMRLQELSRDWKDAPTAVVDHGANPGLITHFVKQGLLDIAARTCEDKKVSPEDEQEIALLAKNRDFARLARKLGIRVIHCSERDTQIASRPKEVNEFVGTWSIEGLREEGTAPVEIAWGTHESKLPPLAHIPPYGPKNVILLPQMGVNAWVRSWIPDEEIVGMAIRHGESYGLSKLLTVWEGEKAVYRPTVHYAYMPSHDTLSSLCELRGRNYELQPRLRIMTNEIVSGEDIMGALLMGHSYNSWWTGSALSIEEARSLAPGQNATTLQVAAGIVAAILWMLENPREGVKTPEDLPHDFVLDIARPYLGKFISTPSDWTPLKNRKIFFKESPAVKHDPDPWQFENFIFVGLEHHHHHH
protein production: not failed

MFNPNVAVKNIVTQNGADSIISLIARILMAYIFLVAGWGKITAYSATVGYMEAMGVPGALLPLTILVEFGGGLALLFGFQARFAAFGLGIFSLLTAFIFHEGTDQAQAINFMKNFAMAGGLFFLMLHGAGKISLDAAIEK
protein production: failed

MPSPRLQHSKPPRRLSRAQKHSSGSSNTSTANRRAHLRLCLERLKVLIPLGPDCTRHTTLGLLNKAKAHIKKLEEAERKSQHQLENLEREQRFLKWRLEQLQGPQEMERIRMDSIGSTISSDRSDSEREEIEVDVESTEFSHGEVDNISTTSISDIDDHSSLPSIGSDEGYSSASVKLSFTS
protein production: failed

MMKLLSFDEACQWFDSLPAHKRIATLSPYYVLLDALRDTRLLATYIGFRQGDVFWMHSVHCSAAMAGEVIDLQSPYGYGGPISNCDDPVFLNMVWDLYVEFCARQGWLAEFVRFHPLGGVSSSYGGTIVVDRLTVAIDLTGPNIRSIYSTRCRTAVRKAINNGLNVRVGSERELREIFPHFYRDGMRAIAADKFYLFNDLYFSGFSTWKCATLLICHCDDDWLSAGIFLKDGNVMEYHLSATTPAGRNLGATNLLLDAAAHLGQEQGCSFLYLGGGTDSEKNNPLLFFKSGFSAATYPFLIGFTAFNQDKYQALREKFISDHKPTDRFLFYR
protein production: failed

MWITGASGGLGERIAYLCAAEGAHVLLSARREDRLIEIKRKITEEWSGQCEIFPLDVGRLEDIARVRDQIGSIDVLINNAGFGIFETVLDSTLDDMKAMFDVNVFGLIACTKAVLPQMLEQKKGHIINIASQAGKIATPKSSLYSATKHAVLGYSNALRMELSGTGIYVTTVNPGPIQTDFFSIADKGGDYAKNVGRWMLDPDDVAAQITAAIFTKKREINLPRLMNAGTKLYQLFPALVEKLAGR
protein production: failed

MFRTSGTKTIVFHCHPRYTMIVCVMEEFCRKKVDGNENNSYLTVCNRKLDQERKEIVMNEKQRLEQTGQIQTASHPADRKSDLERLKAKTTKDYEKYFTSVFLPPNLKEAKKRGKEEVQYVKDFTIPDEFRGMGRGRKFYIRTYGCQMNEHDTEVMAGIFMALGYEPTDRPEDANVILLNTCAIRENAENKVFGELGYLKPLKTTNPDLLLGVCGCMSQEEAVVNKILKQYQYVDLIFGTHNIHRLPYILHEAYMSKEMVVEVWSKEGDVVENLPKVRKGNIKAWVNIMYGCDKFCTYCIVPYTRGKERSRRPEDIIQEVRQLAAQGYKEITLLGQNVNAYGKDFNDIQYGLGDLMDELRKIDIARIRFTTSHPRDFDDRLIEVLAKRGNLVEHIHLPVQSGSTEILKMMGRKYTREEYLELVRKIKAAIPDVALTTDIIVGFPNETDEQFEETLSLYREVEFDSAYTFIYSPREGTPAAKMNDNVPMEVKKERLQRLNALVQEIAAKKMKQYEGQVVEVLVEGESKTNPDVLAGYTRKNKLVHFVGPKSLIGQLVNVRITQAKTWTLTGELANEAIEVN
protein production: failed

MEDLERRQRSQVKTHEVQAHGRISRLIPAEDFGIIETPEGREIYFHRHSVVNSDFDRLTVGTAVRFAEEMGEEGPQASSVRVEGKHHLIGLEHHHHHH
protein production: not failed

MATISAKLVKELREKTGAGMMDCKKALTETDGDIDKAIDYLREKGIAKAAKKADRIAAEGLVHVETKGNDAVIVEINSETDFVARNEGFQELVKEIANQVLDTKAETVEALMETTLPNGKSVDERIKEAISTIGEKLSVRRFAIRTKTDNDAFGAYLHMGGRIGVLTVVEGSTDEEAARDVAMHIAAINPKYVSSEQVSEEEINHEREVLKQQALNEGKPENIVEKMVEGRLRKYLQEICAVDQDFVKNPDVTVEAFLKTKGGKLVDFVRYEVGEGMEKREENFADEVKGQMK
protein production: failed

MDVSGQLNTETVGSSLRKIRSFSHYEKHDEVFHSDQSHIVVVHNGQLRVQTGDCTIDVVAGSGVFLSQGDYLLEYSPQGGNYHSSIIEFDNELVSQLLQKHSDLLMTLPKVDKLNSGLFSFGLNILIEQVLSGMKTLEEQSYPDAIMRLKYEEMLILLLHSQGGEVLYALLSQQTNRTSDRLRRFMEQHYLKEWKLTDYAQEFGASLTTFKELFNEHYGISPRAWISERRLLHAHKLLLTSKMSIVDVAMEAGFSSQSYFTQSYRRRFGTTPSKVRSGDEQVAIAN
protein production: failed

MLEATNTPSKTEEPAAPVNPALAAEAKIARIAVTVFPLLVVVAGVLGFLIPDLFKPMGVAVPYLLGVIMFCMGLTLTPPDFASVARRPWAVALGIVAHYVIMPGAGWLIAVLLQLPPELAVGLILVGCAPSGTASNVMAFLAKGDVALSVAVASVSTLIAPIVTPTLTLFLAGSFLHIDAGAMVMDIVKTVLLPVIAGLLARLFLSKLVAKVLPALPWASAVVISLIVAIVVAGSASKIVAAGAIVFLAVVLHNGFGLGLGYLAGKLGRLDDKARRALAFEVGMQNSGLAATLATAHFSPLAALPSAVFSLWHNISGAIVAAWLARRPLKD
protein production: failed

LSEVEFVEFQKENFSLLIDARSPREFLHSHLIGALNFYALNDEEYQEIGTIYKKNQALAKAMGASYICQNTTKHILEITQNFRIGEKVGIYCSRGGLRSKSIAVILSELGFRVVRLKGGFKAYRTFVTHYFEN
protein production: failed

MKRFVLLDTTAIPENGGALCLFEYGEDFVIKIQGGDGGQLMNTRMHGSEDALAQIPCSKVAGRPNSRVLIGGLGMGFTLAAALKHLGKSAKVVVAELVPGVVEWNRGPLGEKSGRPLLDPRTVIRLEDVAKVLQAEPQGFDAIMLDVDNGPEGLTQKANSWLYSSAGLAACARALRPKGILAVWSASADRQFSERLRKAGFKAEEVQVFAHGNRGTRHTIWIAEKLKA
protein production: failed

DPQFHREGDDIVVEREIKFTDAALGASLDVPTLEGTKRVKVPAGIQSGTKIRLKGLGFPHMGKTAKGDLYVHINVSVPRSLSADQKAILEKLREAGL
protein production: failed

MMQPKFCTRCLAMSTRPRITFNRDGVCNACLWQEQKSSVDWDDRNSKLLSLLDSHRSKNNSYDVIVPVSGGKDGSYVAYNLKHKFNMNPLCVTVTPPLETQLGAQNLKNFIKSGYDQVSININPETIRNINRAGFVHHGFPYFGWLVAIVTSVTRVAQQMNVPLIMYGEDAEMEYGGSSEKANLTTFGIEYMKRVGFEAGYEKVFSTLDLSDSDLYWLTFAEQDKTQVLFSHWSYFENWDPYRNYLVAKKQCGLQEADDTNFGTFTNFAQNDQYLYVLHTYLMYLKFGFGRSNQDACIEIRRGAMKREQAINLVRLYDGQFPDEFLQMYLEYYQMSEAEFNATLARWVNKDLFELKDGLWSPTFTIQ
protein production: failed

MALRQKLGWSEGDLMRSDAKPCSRLMKQTAAIFTVGGALGFWVLCRLHYGPRITVPRSLRWAGCGALSVSTSTAMLVRLFSPECEPQNIAAYDNIKTPQASLP
protein production: failed

MGLPSSLESYLLLILLSFLNVSTIYSSKPSKEEAVLFGGNFPAFYVIGDSLVDPGNNNHLPTMIRANYPPYGSDFEGGKATGRFSNGKTIADYIAIYYKLPLVPAYLGLSDDRKDTISTGMNYASAGCGIRRLTGKIAGKCLSLSKQVDLFEETIEKHLKTNFKTPYELREHLAHSLFMTVIGVNDYAFFYTRLTDANDFADELLHKFLKKIEKLHKLGARKFFINNIKPLGCYPNIVAKTVPRGSRRTYKPCYKHLQRKA
protein production: failed

MNQGKIITVSGPLVVASGMQEANIQDICRVGHLGLVGEIIEMRRDQASIQVYEETSGIGPGEPVVTTGCPLSVELGPGLISEMFDGIQRPLDRFQKATDSDFLIRGVAIPSLDRKAKWAFIPKLSVGQEVVAGDILGTVQETAVIEHRIMVPYKVSGTLVAIHAGDFTVTDTVYEIKQEDGSIYQGSLMQTWPVRQSRPVAQKLIPVEPLVTGQRVIDTFFPVTKGGAAAVPGPFGAGKTVVQHQIAKFANVDIVIYVGCGERGNEMTDVLNEFPELIDPNTGQSIMERTVLIANTSNMPVAAREASIYTGITIAEYFRDMGYSVAIMADSTSRWAEALREMSGRLQEMPGDEGYPAYLGSRIAEYYERAGRVRTLGSQEREGTITAIGAVSPPGGDISEPVTQNTLRIVKVFWGLDAPLAQRRHFPAINWLTSYSLYQDDVGSYIDRKQQSNWSNKVTRAMAILQREASLEEIVRLVGLDSLSEQDRLTMAVARQIREDYLQQNAFDSVDTFTSFPKQEAMLTNILTFNEEASKALSLGAYFNEIMEGTAQVRDRIARSKFIPEENLEQIKGLTQKVTKEIHHVLAKGGI
protein production: failed

MTHIQLDFSKTLEFFGEHELKQQQEIVKSIHKTIHEGTGAGSDFLGWVDLPVDYDKEEFSRIVEASKRIKENSDVLVVIGIGGSYLGARAAIEMLTSSFRNSNEYPEIVFVGNHLSSTYTKELVDYLADKDFSVNVISKSGTTTEPAVAFRLFKQLVEERYGKEEAQKRIFATTDKEKGALKQLATNEGYETFIVPDDVGGRYSVLTAVGLLPIATAGINIEAMMIGAAKAREELSSDKLEENIAYQYATIRNILYAKGYTTEMLINYEPSMQYFNEWWKQLFGESEGKDFKGIYPSSANYTTDLHSLGQYVQEGRRFLFETVVKVNHPKYDITIEKDSDDLDGLNYLAGKTIDEVNTKAFEGTLLAHTDGGVPNMVVNIPQLDEETFGYVVYFFELACAMSGYQLGVNPFNQPGVEAYKQNMFALLGKPGFEDLKKELEERL
protein production: failed

MSKARKTAASSGEPDFWRVARDWLHHWLPKVRGSSPKTVEAYRIGLESYVRWLETTEGTQRSHIGFGHFDRARLGRWVEWMRTERGYSDRTIMLRMTTMRVFLDHAGLEHPALTALGNDAAGIRVKPPARKPVDHLGEEHTKALLTAWGTGDAKSRRNRMLLILMYDTAARIGELAALTIADVGMDKPARVTLTGKRGKSRVVPLGERTRTHLAAYLEEFHPGPSMRDGDRPLFHSTRNGAIQPLSVDRIDEILKTAAARARRGTCPSMPERVHCHLIRRTRAMDLYQQGVPLPLIMQLLGHESMSTTSAFYAFATLDMMRKAVDAANPGPDPSKETWLSEQRLRQLHTLK
protein production: failed

MSTSPADTARYNRFVADLFGMMAYGELSAFERFSADARYSPTLHDRAVLGRIAVVEFRHYELVSARLEAMGIDAEDAMLPFQAAVDYFHSRTRPADWYESLMKAYVIDTVSADFYRAISRYVDAGTRDVIEQIQASDETTEVLRERLRSALADDPRLASRLALWGRRLLGEALTQAQRVSYEHAFLGSLIGGEDSAAAKELVSGLIAGLAEKHSKRMTQLGLTG
protein production: not failed

MRTISFFNNKGGVGKTTLSTNVAHYFALQGKRVLYVDCDPQCNATQLMLTEEQTESIYLDGLNDEVAERNSLAKTVYAIFVPLREGESQIAAEITPMRSERFGVDVLPGHPALSQIEDLMSDSWQSALGRQTGPFRRIHWAGQLAHAMERDDRYDVIFFDVGPSLGPFNRTVLLGCDAFVTPTATDLFSFHAFGNLARWFDAWVTQ
protein production: failed
